Two substances from PMC11570840 can be followed below.

The target in experiment [1] is β2-adrenergic receptor C terminally fused with RlucII (β2AR-RlucII) (UniProt P07550). The experiment is described as follows: FRET or BRET; live HEK293 cells co-transfected with donor β2AR-RlucII and acceptor NES-Venus-mGs, -mGsi or -mGsq; 48 h after transfection stimulated 20 min with increasing concentrations of ISO; 5 μM coelenterazine H in PBS; data as % of maximal ISO-induced mGs recruitment. On the technique in general: Bioluminescence resonance energy transfer reports proximity on the nanometre scale.

For experiment [2] the target is unchanged. As to the kind of experiment: FRET or BRET; live HEK293 cells co-transfected with donor β2AR-RlucII and acceptor NES-Venus-mGsq; stimulated 20 min with increasing concentrations of ISO, epinephrine, norepinephrine or formoterol; data as % of maximal ISO-induced mGsq recruitment.

The substance NES-Venus-mGsi (mini G protein mGsi) gave an efficacy of ISO-induced recruitment, % of mGs in experiment [1] of 60%.
In experiment [1], NES-Venus-mGsq (mini G protein mGsq) showed an efficacy of ISO-induced recruitment, % of mGs of 20%. Further, in experiment [2], the efficacy of recruitment with epinephrine, % of ISO came to 60%; the efficacy of recruitment with formoterol, % of ISO worked out at 80%; the efficacy of recruitment with norepinephrine, % of ISO was determined as 40%.
